Results taken from US20090004183A1 (published 2009).

Biological target: T1, C3b deposited on zymosan or Sepharose 4B (human, UniProt P01024 23-667; P01024 749-1663, limits assumed, covalently deposited on zymosan A or Sepharose 4B by opsonization in normal human serum)
T1 construct: The whole C3 entry is named; The deposit may include iC3b; also called C3b-opsonized zymosan; C3b-zymosan
Assay: flow cytometry on zymosan opsonized in 50% NHS
Method: After 30 minutes, the reactions were quenched with EDTA, washed and samples without the mAbs were probed with the respective A1488 mAbs.

T1 sequence (P01024 23-667 limits assumed, chain 1 of 2): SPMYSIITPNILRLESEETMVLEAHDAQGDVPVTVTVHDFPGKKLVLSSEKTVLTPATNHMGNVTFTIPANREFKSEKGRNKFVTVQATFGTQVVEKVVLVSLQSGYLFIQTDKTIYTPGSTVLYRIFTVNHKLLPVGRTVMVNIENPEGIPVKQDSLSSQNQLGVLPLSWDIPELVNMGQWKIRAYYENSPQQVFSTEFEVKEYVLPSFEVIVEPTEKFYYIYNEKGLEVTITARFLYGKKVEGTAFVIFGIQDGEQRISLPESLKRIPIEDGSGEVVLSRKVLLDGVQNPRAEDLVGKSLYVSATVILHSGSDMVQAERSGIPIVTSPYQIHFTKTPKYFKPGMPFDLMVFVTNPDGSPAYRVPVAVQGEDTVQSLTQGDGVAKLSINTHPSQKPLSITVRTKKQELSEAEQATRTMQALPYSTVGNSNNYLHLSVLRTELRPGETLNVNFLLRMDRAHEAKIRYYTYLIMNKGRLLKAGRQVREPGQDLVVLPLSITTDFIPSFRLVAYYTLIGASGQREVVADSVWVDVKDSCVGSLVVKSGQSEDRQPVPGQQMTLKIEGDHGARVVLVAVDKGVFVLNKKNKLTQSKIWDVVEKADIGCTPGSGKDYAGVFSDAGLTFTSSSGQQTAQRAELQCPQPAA
T1 sequence (P01024 749-1663 limits assumed, chain 2 of 2): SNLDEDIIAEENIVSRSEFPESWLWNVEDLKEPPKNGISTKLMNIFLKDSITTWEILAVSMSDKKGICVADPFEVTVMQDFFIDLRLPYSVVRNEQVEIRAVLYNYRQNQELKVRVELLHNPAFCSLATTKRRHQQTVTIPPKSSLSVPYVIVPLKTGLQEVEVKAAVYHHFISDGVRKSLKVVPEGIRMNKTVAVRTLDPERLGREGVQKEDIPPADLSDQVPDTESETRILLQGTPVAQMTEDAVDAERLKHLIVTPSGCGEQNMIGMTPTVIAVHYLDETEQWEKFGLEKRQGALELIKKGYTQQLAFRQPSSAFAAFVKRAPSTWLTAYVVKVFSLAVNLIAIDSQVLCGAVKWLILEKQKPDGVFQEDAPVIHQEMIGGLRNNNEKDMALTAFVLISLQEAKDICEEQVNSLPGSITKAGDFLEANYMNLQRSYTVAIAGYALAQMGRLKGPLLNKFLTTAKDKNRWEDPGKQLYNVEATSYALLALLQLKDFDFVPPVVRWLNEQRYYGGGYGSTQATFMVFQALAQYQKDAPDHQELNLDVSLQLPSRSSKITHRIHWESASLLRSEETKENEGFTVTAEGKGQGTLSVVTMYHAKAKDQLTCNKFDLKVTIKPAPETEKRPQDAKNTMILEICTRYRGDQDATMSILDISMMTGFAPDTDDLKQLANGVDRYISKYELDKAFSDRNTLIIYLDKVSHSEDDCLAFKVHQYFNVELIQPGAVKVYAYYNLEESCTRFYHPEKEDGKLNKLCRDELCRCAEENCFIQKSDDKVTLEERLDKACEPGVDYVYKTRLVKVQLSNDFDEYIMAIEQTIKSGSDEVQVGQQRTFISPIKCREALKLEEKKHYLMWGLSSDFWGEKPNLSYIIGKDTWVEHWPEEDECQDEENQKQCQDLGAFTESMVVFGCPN

Binder | fold increase in binding (probe added after opsonization versus present from the start)
mAb 3E7 (antibody, mouse IgG1, V domains shown, also called mouse IgG1 mAb 3E7; A1488 mAb 3E7) VH: EVQLQESGPSLVKPSQTLSLTCSVTGDSITSDYWNWIRKFPGNKLESMGYITYSGTTYYNPSLKSRISITRDTSKNQYYLQLNSVTSEDTATYYCARGVDYEPSYYFDYWGQGTTLTVSS VL: DIQMTQTTSSLSASLGDRVTISCSASQGISNYLNWYQQKPDGTVKLLIYYTSSLHSGVPSRFSGSGSGTDYSLTISNLEPEDIATYYCQQYSNLPWTFGGGTKLEIK | 200 fold
mAb H17 (antibody, V domains shown, It is a chimeric, de-immunized form of 3E7 with human gamma1 and kappa constant regions, expressed in NS0 cells; also called H117; deimmunized chimeric 3E7) VH: EVQLQESGPSLVKPSQTLSLTCTVSGDSITSDYWNWIRQAPGKGLESMGYITYSGTTYYNPSLKSRVTISRDTSKNQYYMELSSLRSEDTATYYCARGVDYEPSYYFDYWGQGTLVTVSS VL: DIQMTQSPSSLSASVGDRVTITCSASQGISNYLNWYQQKPGKAPKLLIYYTSSLHSGVPSRFSGSGSGTDYSLTISSLQPEDIATYYCQQYSNLPWTFGQGTKVEIK | 200 fold
